Measurements from patent US20090149339A1.

Biological target: GST-DLG1 PDZ domain fusion protein (human homolog of Drosophila discs large protein AA275-477; PDZ domains 1-2 of 3) (human) [GST: P08515]
Test: variant of G assay: 100 µM unlabeled 8-mer with 20 µM biotin-labeled AA2L CLASP-2 peptide on GST-DLG1

GST-DLG1 PDZ domain fusion protein (human homolog of Drosophila discs large protein AA275-477; PDZ domains 1-2 of 3) (human) [GST: P08515], sequence (P08515 1-218, tags or fused parts left off): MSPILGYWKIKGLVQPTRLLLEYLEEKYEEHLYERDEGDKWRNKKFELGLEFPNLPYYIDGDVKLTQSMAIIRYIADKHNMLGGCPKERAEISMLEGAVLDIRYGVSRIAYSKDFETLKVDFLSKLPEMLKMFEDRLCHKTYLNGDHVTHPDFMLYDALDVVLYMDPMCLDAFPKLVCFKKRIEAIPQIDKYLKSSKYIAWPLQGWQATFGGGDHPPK

eight amino acid CLASP-2 peptide MTSSSSVV (unlabeled competitor)
percent inhibition: > 50%
